In patent publication US20240052047A1 (Pfizer, published 2024):

Target: human IL27 receptor (IL27RA/gp130 heterodimer) on human cells (human, UniProt Q6UWB1 33-636; P40189 23-918)
Assay: cell-based or functional assay

human IL27 receptor (IL27RA/gp130 heterodimer) on human cells, sequence (Q6UWB1 33-636 limits assumed, chain 1 of 2): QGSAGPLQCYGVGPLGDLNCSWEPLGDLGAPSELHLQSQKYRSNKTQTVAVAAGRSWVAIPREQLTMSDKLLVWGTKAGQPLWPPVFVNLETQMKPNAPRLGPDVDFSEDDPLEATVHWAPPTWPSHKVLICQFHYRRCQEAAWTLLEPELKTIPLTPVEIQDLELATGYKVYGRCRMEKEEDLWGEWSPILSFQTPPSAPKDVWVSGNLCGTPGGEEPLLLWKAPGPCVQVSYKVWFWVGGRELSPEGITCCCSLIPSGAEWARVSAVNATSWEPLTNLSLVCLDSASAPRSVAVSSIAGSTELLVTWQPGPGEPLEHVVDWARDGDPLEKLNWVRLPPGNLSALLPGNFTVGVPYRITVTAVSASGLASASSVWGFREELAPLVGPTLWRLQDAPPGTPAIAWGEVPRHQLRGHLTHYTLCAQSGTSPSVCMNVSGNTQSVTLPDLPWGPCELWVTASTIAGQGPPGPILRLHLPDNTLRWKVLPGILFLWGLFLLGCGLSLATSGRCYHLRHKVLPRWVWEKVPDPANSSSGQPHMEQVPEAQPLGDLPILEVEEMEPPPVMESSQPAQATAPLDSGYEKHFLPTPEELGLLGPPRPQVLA
human IL27 receptor (IL27RA/gp130 heterodimer) on human cells, sequence (P40189 23-918 limits assumed, chain 2 of 2): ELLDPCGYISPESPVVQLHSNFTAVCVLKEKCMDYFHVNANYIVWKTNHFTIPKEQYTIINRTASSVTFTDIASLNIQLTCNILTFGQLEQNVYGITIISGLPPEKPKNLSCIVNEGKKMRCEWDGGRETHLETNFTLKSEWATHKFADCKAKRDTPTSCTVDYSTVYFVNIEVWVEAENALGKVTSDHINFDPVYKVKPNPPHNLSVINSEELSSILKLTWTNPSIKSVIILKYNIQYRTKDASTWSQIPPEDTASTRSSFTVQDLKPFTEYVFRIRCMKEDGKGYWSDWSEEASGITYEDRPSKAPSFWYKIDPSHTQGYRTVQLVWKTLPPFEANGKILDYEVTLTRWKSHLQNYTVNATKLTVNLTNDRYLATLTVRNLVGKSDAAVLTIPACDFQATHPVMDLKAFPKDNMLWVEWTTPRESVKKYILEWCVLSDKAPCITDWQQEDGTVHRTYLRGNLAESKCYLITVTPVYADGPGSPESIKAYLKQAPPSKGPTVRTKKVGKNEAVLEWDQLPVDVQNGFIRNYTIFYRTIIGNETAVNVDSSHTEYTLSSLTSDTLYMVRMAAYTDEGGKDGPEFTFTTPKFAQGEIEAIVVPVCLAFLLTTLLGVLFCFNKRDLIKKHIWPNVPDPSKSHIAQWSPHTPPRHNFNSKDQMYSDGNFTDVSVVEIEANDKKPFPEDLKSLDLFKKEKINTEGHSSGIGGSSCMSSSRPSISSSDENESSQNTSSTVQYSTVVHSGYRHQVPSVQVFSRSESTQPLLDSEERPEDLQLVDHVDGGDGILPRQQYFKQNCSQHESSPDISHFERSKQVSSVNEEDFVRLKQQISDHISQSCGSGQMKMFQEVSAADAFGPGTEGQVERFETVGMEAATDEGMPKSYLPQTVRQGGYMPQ

B1: GBT-IL-27R-4933 (KiH-mFd format IL27RA/gp130 bispecific antibody) (bispecific antibody, human IgG1, kappa)
chain 1: DIQMTQSPSSLSASVGDRVTITCRASQSVSSSYLAWYQQKPGKAPKLLIYGTESRATGVPSRFSGSGSGTDFTLTISSLQPEDFATYYCQQYGGYPTFGGGTKVEIKRTVAAPSVFIFPPSDEQLKSGTASVVCLLNNFYPREAKVQWKVDNALQSGNSQESVTEQDSKDSTYSLSSTLTLSKADYEKHKVYACEVTHQGLSSPVTKSFNRGECDKTHTCPPCPAPEAAGAPSVFLFPPKPKDTLMISRTPEVTCVVVDVSHEDPEVKFNWYVDGVEVHNAKTKPREEQYNSTYRVVSVLTVLHQDWLNGKEYKCKVSNKALPAPIEKTISKAKGQPREPQVYTLPPCREEMTKNQVSLSCAVKGFYPSDIAVEWESNGQPENNYKTTPPVLDSDGSFFLVSKLTVDKSRWQQGNVFSCSVMHEALHNHYTQKSLSLSPGK
chain 2: QVQLVQSGAEVKKPGSSVKVSCKVSGGSISSYYWSWVRQAPGQGLEWIGRIYITGNTNYNPSLKDRVTMTVDTSTSTHYMELSSLRSEDTAVYYCAREGPKLGIFDYWGQGTLVTVSSASTKGPSVFPLAPSSKSTSGGTAALGCLVKDYFPEPVTVSWNSGALTSGVHTFPAVLQSSGLYSLSSVVTVPSSSLGTQTYICNVNHKPSNTKVDKKVEPKSC
heavy: EVQLVESGGGLVQPGGSLRLSCAASGFTFEYFGLQWVRQAPGKGLEWIGYTSSGGNYEYYEETLKGRFTISRDNAKNSLYLQMNSLRAEDTAVYYCARTKTGDYWGQGTLVTVSSASTKGPSVFPLAPSSKSTSGGTAALGCLVKDYFPEPVTVSWNSGALTSGVHTFPAVLQSSGLYSLSSVVTVPSSSLGTQTYICNVNHKPSNTKVDKKVEPKSCDKTHTCPPCPAPEAAGAPSVFLFPPKPKDTLMISRTPEVTCVVVDVSHEDPEVKFNWYVDGVEVHNAKTKPREEQYNSTYRVVSVLTVLHQDWLNGKEYKCKVSNKALPAPIEKTISKAKGQPREPQVCTLPPSREEMTKNQVSLWCLVKGFYPSDIAVEWESNGQPENNYKTTPPVLDSDGSFFLYSKLTVDKSRWQQGNVFSCSVMHEALHNHYTQKSLSLSPGK
light: DIQMTQSPSSLSASVGDRVTITCRASQDIGNSLTWYQQKPGKAPKRVIFGATGLAAGVPSRFSGSGSGTDFTLTISSLQPEDFATYYCLQSKQYPYTFGQGTKLEIKRTVAAPSVFIFPPSDEQLKSGTASVVCLLNNFYPREAKVQWKVDNALQSGNSQESVTEQDSKDSTYSLSSTLTLSKADYEKHKVYACEVTHQGLSSPVTKSFNRGEC
IDO1 in CD14+ monocytes EC50: 0.015 nM
PD-L1 in CD14+ monocytes EC50 (human whole blood): 0.006 nM
pSTAT1 in CD3+ T cells EC50 (human whole blood): 0.233 nM
